# In the supplement of paper PMC12042874:
# ± gives the uncertainty stated by the source.
# Test: amyloid nucleation score (Sup35N fusion, yeast selection) (log enrichment); library NNK1; higher = more nucleation; inactive = no reads after selection
# In short: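 Sup35N fusions to peptides of 20 random codons were expressed in psi-negative yeast, induced 24 hours with 100 μM copper sulfate, and grown 7 days at 30°C on medium lacking adenine and uracil. Input and output plasmid inserts were sequenced by Illumina. The nucleation score is the DiMSum log enrichment of output over input reads, centred on the mode score of non-aggregating sequences. Sequences with under 100 input reads were excluded.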
row,Substance,amyloid nucleation score
1,IFFFKEYCFMQVIRGFVCN,-0.265 ± 1.1
2,KLWVNNQS,0.198 ± 0.57
3,QPKFLVCFA,0.101 ± 0.6
4,WSRHELWWVPCCDRMLVLGH,0.746 ± 0.9
5,TGLELGVPKIRCMSFHVLPW,-0.394 ± 0.92
6,IVYTYRVNIVII,7.528 ± 0.044
7,RIGTFGNDNSMFRSDVLSVS,0.579 ± 0.35
8,LSTLQQLGKLLNTVWDDLAQ,0.048 ± 0.9
9,VDLLNGDWNRSLMKAKPVER,0.17 ± 0.29
10,WMRKVIPTNGTVDIETSS,0.438 ± 0.33
11,VRFIFSRSIGLQ,-0.361 ± 0.42
12,VKHCQFR,1.69 ± 0.73
13,TWQSLHGTVTRPRAIVFRLC,0.027 ± 0.66
14,YVIMWGGLTLYLWGCRKWWE,-0.103 ± 0.43
15,RQFIELKCLFPMADVIVF,0.315 ± 0.38
16,MSKKMQRPRVAAVGFERFGT,-0.174 ± 0.9
17,HGGRDVCDKGVSSRGHRW,0.276 ± 0.79
18,GYLSGSMSDETGTPDMCTRG,0.353 ± 0.51
19,IRTPYIWLTCRGPYEVRRWD,-0.247 ± 0.69
20,MFWQHQLFVESRQNSSFTSF,-0.23 ± 0.63
21,HYIIIRFLNAELTLCHLRMI,-1.61 ± 1.7
22,RERSIWFSFDGCRRRRRYGG,1.41 ± 0.78
23,AVLNFIQVVVVVEVVGCYQH,2.68 ± 0.28
24,EPARK,inactive
25,ITMNVRSSYGLSVIMIELGL,1.02 ± 0.76

row,Substance,amyloid nucleation score
1,IIEWFSWWARMIFDDFPYYE,inactive
2,IIISTGVRFTEDSCGFAWAE,-0.009 ± 0.66
3,TIVYATGMNMYTDAC,-0.203 ± 0.34
4,TLTCFLIYHTWTR,-1.34 ± 1.4
5,KVCAVTM,0.095 ± 0.3
6,WNEADWHMCH,1.34 ± 0.38
7,THGPFRCLSNCDVFTPNPEE,1.03 ± 0.62
8,WCNTMFWHS,1.09 ± 0.22
9,ALHCQPVGH,-0.006 ± 0.32
10,SNFHRNVYRGYRV,inactive
11,GVDGFWRMVSKLPHGRLDQH,-0.123 ± 0.38
12,IILIDMVCPPCRPRFRSYSC,-0.153 ± 0.69
13,YSSGKELTGLLDKKFIIGLD,-0.186 ± 0.39
14,LIDLSSIKSWHVFSKALCGR,0.006 ± 0.27
15,IIICFRTWLTCSFCFDSAPC,0.227 ± 0.49
16,KKRSFLGYFVSLAFYNCYQY,2.73 ± 0.075
17,EGRPECKARLSRYGRCRMNG,0.447 ± 0.48
18,CGSRVDGSCTAGTSIWVVDV,0.528 ± 0.66
19,NCFRLILFVLSDHRQWCFES,-1.78 ± 1.7
20,FVMSHSL,0.987 ± 0.43
21,RKSLTGYKYCMKWGTIVAPN,0.745 ± 0.59
22,AFNKAVMSDTQL,-0.7 ± 0.6
23,FQGMYWNGFSSSSMSAATPR,0.157 ± 0.52
24,TGAYSECFALLIMG,-1.09 ± 1
25,LSGFKMFIGNYITVV,-0.779 ± 0.78

row,Substance,amyloid nucleation score
1,MCVMVGLLYGVLLSSFTNNA,0.684 ± 0.23
2,PGLFYETDHVASVVVCKSPH,-0.231 ± 0.45
3,VRSFLPMYMF,-0.376 ± 1.7
4,GNAFFTYMINNYVSYFWHMP,6.42 ± 0.059
5,LSCDVQWLCLESNCE,3.96 ± 0.07
6,TVFIKLKVFAMN,1.53 ± 0.18
7,AVELAKSPLWIPKLGYVMNQ,0.233 ± 0.48
8,DRCNDAVGRKRRRTKMRGLY,0.457 ± 0.45
9,YGLEYVYVVV,0.277 ± 1.4
10,LYFRIGYSMLIATDVGFGDL,-2.74 ± 1.8
11,QLTGW,-0.036 ± 0.22
12,MRKTFDAVLNAFFCKALFCY,0.759 ± 0.39
13,NFLESSFYFFALVSASLSFN,0.527 ± 0.25
14,FLWIYLSNTVLG,-0.535 ± 0.33
15,RSRKK,0.34 ± 0.21
16,RCCKQTSRVDMC,0.156 ± 1.6
17,LRKMLMDE,inactive
18,FSPRIALVFRKYQGMASQPP,4.45 ± 0.061
19,NWRSTLVSCLVYLPVLCCRC,5.31 ± 0.058
20,NCGTVHGHADGSYVCDMGSR,-0.022 ± 0.98
21,QNPRIKFIQHVPIYNEGTLP,1.17 ± 0.43
22,LPGFYDRKICKSLSMIYRLS,-0.405 ± 1.7
23,LIWWFEGRPRVSGGFSVFDV,-0.304 ± 1.1
24,MGCKAKRAFVEFLSRMEVRP,-0.035 ± 0.22
25,NSCWRTGLQVPVSQHYNQTI,-0.492 ± 0.61

row,Substance,amyloid nucleation score
1,IYVYVLSMMCPSEDR,0.201 ± 0.84
2,ICFRIIVAIVQRV,1.14 ± 0.38
3,YLMKRSWTGMIGLGTQVKSS,0.9 ± 0.58
4,HGGKCLSMRYRDCALWTFQG,0.031 ± 1.2
5,TSPYDSNGLFAMLAELHFYS,0.082 ± 0.78
6,GFVMKLLL,1.35 ± 0.21
7,LSGDIFRNHMNRFYL,-0.071 ± 0.27
8,IVGSLYLELYSRR,1.57 ± 0.18
9,EGVQKDC,inactive
10,RRTLEAFICL,-0.312 ± 0.84
11,FWVDCSRVVRLKIQFNLV,0.864 ± 0.42
12,EQCHRVFRAL,0.362 ± 0.55
13,LQLYQVFSVHYEC,3.08 ± 0.11
14,RILYSSSSAFIGIYSLFVII,0.292 ± 0.23
15,TSDFVVPM,0.691 ± 0.41
16,NRARPLVSFMILGSVSECYA,0.767 ± 0.21
17,SILSWLFSWTMLEEVI,inactive
18,WVVLFLLWNGWVDWHIRTEQ,-0.128 ± 0.36
19,TSACFFFRCCCLRS,3.76 ± 0.15
20,FFNAV,-0.353 ± 0.59
21,HVWSILAISVYNAHRGSRV,7.134 ± 0.051
22,IGGLSGEYWFHLLSSSVLFF,inactive
23,HDGLLVFAFHY,-0.378 ± 1.4
24,SEFHFMRT,-0.482 ± 1.7
25,LMQLHCLARSLYPFPWSGPT,1.96 ± 0.42

row,Substance,amyloid nucleation score
1,SYPCTVHTKGWLVFTCGVCI,0.32 ± 0.73
2,YFLTHRTGRYNMGDSSVRTL,-0.319 ± 0.38
3,MCRVHFRNVTFCGALARSVL,-0.751 ± 0.43
4,VCKFNYL,-0.769 ± 1.1
5,ESIVRFKSSRSDKI,2.86 ± 0.075
6,SDSFLSSYHSFMRDVWV,0.872 ± 0.58
7,PVRSL,-0.515 ± 0.48
8,VNYISHTQMKTR,0.913 ± 0.41
9,LYEVNWVSYRMFAVGVRYVL,-0.397 ± 0.36
10,CMVMFCCWNMWVDSVH,7.237 ± 0.069
11,SNVICRGR,1.41 ± 0.31
12,VSWYSSVIKL,inactive
13,PTHDILFVTDSLTAKANDMV,-0.189 ± 0.32
14,EAGNTDSAINGVRAKDGS,1.15 ± 0.69
15,RANQHRGYIFSILVTFCYST,-0.505 ± 0.51
16,ACGRLFDYVAFHRLLDQTHW,-0.617 ± 0.65
17,SYAGYGTNK,-0.242 ± 0.62
18,TGGFIFHGCAFYRMFSWLVD,0.849 ± 1.1
19,ALSEFIFGLWLSFLIPRYMW,1.21 ± 0.56
20,NILDMCLKRYIFMLE,1.44 ± 0.37
21,VRGVARYNRKFGDCFYPTHG,0.065 ± 1.5
22,SIHVGVSRG,0.806 ± 0.35
23,AVCVMWANGLVYMTSLECER,-0.679 ± 0.35
24,GNDLNRREVELGLNSIYKSY,0.711 ± 0.73
25,TTLKGCSIY,0.934 ± 0.41

row,Substance,amyloid nucleation score
1,GRMTFFLVWNCVSFFVTQLL,-0.611 ± 2.1
2,IRGTFRVSYGNGKCNSVMNY,0.201 ± 0.42
3,MSRRWV,-1.01 ± 0.79
4,ISTDPWAAHYNRTHIQ,1.98 ± 0.15
5,LPCSRRTTPSDVCP,-0.271 ± 0.36
6,LRLENAQLSFTFEYWILYG,-0.475 ± 1.7
7,CAHIY,-0.747 ± 0.99
8,EIARHSFF,inactive
9,PQALGSTHLQTRRDQHVIF,-0.046 ± 0.53
10,SEHILFLCCMMVGSVVSSAC,inactive
11,DGSYTTRGRGHGESGRSGCW,0.17 ± 0.42
12,DNGGFDPWWCWNRLRWWRGG,0.248 ± 0.38
13,GAICQGLINDVVGRGDGMMR,1.19 ± 0.97
14,CSLLLMYIKNELMIRSFGRF,inactive
15,NTGRISYFFVVSNPSPYSLR,3.75 ± 0.058
16,SLLNTELQIKAQYDQMSHRR,0.36 ± 0.44
17,SFGPIVCGFVVKRMWKCNIG,3.63 ± 0.12
18,FVTMAVWGLYTCFKVHKGIV,-0.4 ± 0.78
19,AWQRVSVKFELGDIGPEGLY,-0.668 ± 0.31
20,FSALPTLASGLGFGR,0.604 ± 0.73
21,KIRVILYVPRVS,1.76 ± 0.51
22,NGYQCYGILCAFVTWTVYFW,1.26 ± 0.79
23,IHSQHKHVIMRA,-0.061 ± 0.57
24,NWHGSLKPPYACEGALRVWR,6.26 ± 0.08
25,CGFALSRQVDILILLADSYD,0.167 ± 1.1

row,Substance,amyloid nucleation score
1,NRALGMRGVIGPSVWYVVP,0.534 ± 0.26
2,SISNPRSLLYVSRSYNSDEF,-0.956 ± 0.8
3,RAMVLCGGCTWPAREDNEKV,0.506 ± 0.33
4,LSWYPCWVARSTMALDGYGV,-0.776 ± 0.55
5,GFNKSSSGFVSSNGDIDYWD,-1.68 ± 2.1
6,YLILLWWTNCRARAKERVDR,-0.155 ± 1.1
7,RDVECQLVSMHKGMWKLVEE,-0.041 ± 0.28
8,VATCWRYSGMSARLLSGSLN,0.516 ± 0.4
9,YSLFAGLREVSMDVCNDV,0.39 ± 0.5
10,SIDRIRVSVHPLAFKIYLDV,0.497 ± 0.43
11,TSRFSFCGS,1.85 ± 0.14
12,AKGYTEMVKYHRVSTTMVFM,inactive
13,SFLLKKKVPWPFFCTCMLVG,-0.575 ± 1.5
14,RRGEPIKKIPACGGSLCVR,-0.368 ± 0.47
15,ADWTSSLNLGEYYMFKFSPE,1.02 ± 0.38
16,AVGGDSMYSLQSGYKLILAS,0.288 ± 0.35
17,YACQQ,0.314 ± 0.62
18,CRLKSMMVRNSWSVCSSGWG,0.32 ± 0.5
19,GKQHSLS,-1.44 ± 1.9
20,LLRRLTTI,0.696 ± 0.52
21,SQIASVINAQSSMCRFV,-0.023 ± 0.38
22,YLDLFTGSSH,-0.368 ± 0.27
23,LIQRLVFEYMFPVIGVPISW,-0.208 ± 0.65
